Measurements from US20230053360.

Tests used:
[1] = tested on: MMPpep-scram, (prA)GQGIPQGWGG(azK), as a DNA-peptide-DNA conjugate linking two DX tiles
[2] = tested on: MMPpep, (prA)GGPQGIWGQG(azK), as the DNA1-MMPpep-DNA2 triblock conjugate linking two DX tiles

human matrix metalloproteinase 8, sequence (chain, as listed by the source): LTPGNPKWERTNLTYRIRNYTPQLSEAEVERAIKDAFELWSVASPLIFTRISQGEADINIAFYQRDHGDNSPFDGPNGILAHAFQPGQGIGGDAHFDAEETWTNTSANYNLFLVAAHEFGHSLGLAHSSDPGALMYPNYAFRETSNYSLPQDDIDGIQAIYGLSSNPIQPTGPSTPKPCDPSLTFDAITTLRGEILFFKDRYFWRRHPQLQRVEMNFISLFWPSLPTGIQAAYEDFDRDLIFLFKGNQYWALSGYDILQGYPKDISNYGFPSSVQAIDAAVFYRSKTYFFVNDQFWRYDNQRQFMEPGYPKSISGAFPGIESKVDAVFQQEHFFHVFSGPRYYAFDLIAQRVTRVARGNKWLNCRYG

With human matrix metalloproteinase 8 the “cleavage of DX tile dimer to individual tiles, native PAGE” value [1] was “did not show any cleavage to individual tiles” and the “cleavage of DX tile dimer to individual tiles, native PAGE” value [2] was “Following addition of MMP8 (4 ng protein, incubation for 48 h at 37 °C in PBS) a single band is once again seen, corresponding to the individual tiles”.
